Data set [1] concerns the target T1, Ecdysone receptor EcR (878 aa ORF, Table 2) (Drosophila melanogaster) (UniProt P34021).
T1 sequence: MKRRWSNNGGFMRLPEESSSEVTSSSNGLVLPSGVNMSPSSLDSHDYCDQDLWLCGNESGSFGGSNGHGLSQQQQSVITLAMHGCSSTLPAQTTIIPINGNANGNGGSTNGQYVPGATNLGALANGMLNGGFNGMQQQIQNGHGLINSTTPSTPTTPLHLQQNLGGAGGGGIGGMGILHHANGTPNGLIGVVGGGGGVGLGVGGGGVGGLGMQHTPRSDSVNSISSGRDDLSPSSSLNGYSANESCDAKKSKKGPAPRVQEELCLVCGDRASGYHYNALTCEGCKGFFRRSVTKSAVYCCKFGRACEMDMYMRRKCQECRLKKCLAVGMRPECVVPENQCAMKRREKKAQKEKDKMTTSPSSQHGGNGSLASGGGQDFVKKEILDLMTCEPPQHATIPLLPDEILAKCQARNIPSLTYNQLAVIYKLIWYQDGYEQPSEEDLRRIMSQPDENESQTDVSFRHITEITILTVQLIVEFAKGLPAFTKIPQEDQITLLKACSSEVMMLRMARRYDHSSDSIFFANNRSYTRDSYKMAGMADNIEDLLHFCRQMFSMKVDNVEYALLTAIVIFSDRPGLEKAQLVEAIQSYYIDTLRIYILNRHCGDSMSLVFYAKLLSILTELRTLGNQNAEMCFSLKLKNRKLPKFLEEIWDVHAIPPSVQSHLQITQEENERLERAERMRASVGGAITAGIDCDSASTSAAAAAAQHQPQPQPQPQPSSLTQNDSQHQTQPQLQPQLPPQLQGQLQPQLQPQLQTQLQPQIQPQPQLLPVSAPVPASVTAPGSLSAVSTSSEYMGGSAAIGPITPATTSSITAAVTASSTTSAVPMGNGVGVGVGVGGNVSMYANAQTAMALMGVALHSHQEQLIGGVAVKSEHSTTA
Kind of data set: pulldown. The settings on record: anti-EcR immunoprecipitation on magnetic beads; 180 mM KCl EcR buffer pH 7.0, poly dI/dC, 25 C; no hormone stated; antibody dependent; scale: fold preference over average vector sequences.

Data set [2] deals with T2, Endogenous ecdysone receptor of Sch-2 cells (EcR) (Drosophila melanogaster) (UniProt P34021).
T2 sequence: T1 sequence
Briefly: cell_activity. To be noted: 20-OH ecdysone 2e-6 M, beta-galactosidase reporter.

In the case of “TCGAGAGACAAGGGTTCAATGCACTTGTCCAATG / TCGACATTGGACAAGTGCATTGAACCCTTGTCTC”, in data set [1], the binding signal was 1000.

On to “TCGAGAGACAAGGGTTCAATGCACTTGTCCAATG / TCGACATTGGACAAGTGCATTGAACCCTTGTCTC [pEcRE/Adh/betagal reporter, 7 x EcRE upstream of Adh -34+53]”, for which the activity (fold induction by ecdysone) in data set [2] was 2000.

These data come from patent US6245531.
